A short description of this data set: collision cross section of modified peptide (TIMS, N2, iRT-aligned); higher = larger / more extended gas-phase ion. The essentials: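 Values are averages of 1–3 technical replicates of the most abundant feature for each charge state. Collision cross section was obtained from the Mason-Schamp equation after 1/K0 calibration with three reference ions and run-wise alignment to the median iRT peptide deviation. Synthetic peptide pools (iRT standard spiked 1:40) were separated on a 120-min nanoflow C18 gradient at 60 °C, analysed on a timsTOF Pro/HT (dda-PASEF, nitrogen, ~2.4 mbar) and identified with MaxQuant.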

Setting [1] is: charge state: 2, modification: Succinyl.
The mark [2] stands for this setting: charge state: 3, modification: Succinyl.
[3] abbreviates: charge state: 2, modification: HexNAc (ST).
The mark [4] stands for this setting: charge state: 2, modification: Acetyl (K).
The mark [5] stands for this setting: charge state: 3, modification: Acetyl (K).
Setting [6] is: charge state: 2, modification: Citrullination (R).
Setting [7] is: charge state: 3, modification: Citrullination (R).
Setting [8] is: charge state: 2, modification: Glutarylation.
Setting [9] is: charge state: 2, modification: Nitro (Y).
The mark [10] stands for this setting: charge state: 2, modification: Malonyl.
Setting [11] is: charge state: 3, modification: Dimethyl (K).
The mark [12] stands for this setting: charge state: 2, modification: Formyl.
The mark [13] stands for this setting: charge state: 3, modification: Formyl.
[14] abbreviates: charge state: 3, modification: Glutarylation.
Where [15] appears, read: charge state: 2, modification: Propionyl.
The mark [16] stands for this setting: charge state: 2, modification: Trimethyl (K).
[17] abbreviates: charge state: 3, modification: Trimethyl (K).
Where [18] appears, read: charge state: 3, modification: Methyl (R).
Setting [19] is: charge state: 2, modification: hydroxyisobutyryl.
Where [20] appears, read: charge state: 3, modification: hydroxyisobutyryl.
The mark [21] stands for this setting: charge state: 2, modification: Methyl (K).
[22] abbreviates: charge state: 3, modification: Methyl (K).
Setting [23] is: charge state: 2, modification: Crotonyl.

± gives the standard deviation.

With “GTVPDDAVEALADSLGKK [_GTVPDDAVEALADSLGK(Succinyl)K_]”, the collision cross section is, setting by setting: under setting [1], 459.53 ± 1.1 Å²; under setting [2], 536.91 ± 2.2 Å². “VLPSITTEILK [_VLPS(HexNAc (ST))ITTEILK_]” yielded a collision cross section under setting [3] of 396.57 Å². In the case of “STGLELETPSLVPVKK [_STGLELETPSLVPVK(Acetyl (K))K_]”, the collision cross section is 431.84 ± 2.2 Å² under setting [4] and 518.73 ± 1.1 Å² under setting [5].

On to “LLALSGPGGGRGR [_LLALSGPGGGR(Citrullination (R))GR_]”, for which the collision cross section came to 366.92 ± 1 Å² under setting [6] and 440.81 ± 17 Å² under setting [7]. “IQTKAGEATVK [_IQTK(Gluratylation)AGEATVK_]” showed a collision cross section under setting [8] of 370.55 ± 0.62 Å². For the substance “SYSVGASGSSSR [_SY(Nitro (Y))SVGASGSSSR_]”, the collision cross section under setting [9] was determined as 351.9 ± 1.2 Å².

With “SPSDSGYSYETIGKTTK [_SPSDSGYSYETIGK(Malonyl)TTK_]”, the collision cross section by setting is: under setting [10], 450.66 ± 0.58 Å²; (charge state: 3, modification: Malonyl) 526.41 Å². As for “PSVGSQSNQAGQGKR [_PSVGSQSNQAGQGK(Biotin)R_]”, the collision cross section runs as follows: (charge state: 2, modification: Biotin) 421.78 ± 0.67 Å²; (charge state: 3, modification: Biotin) 480.61 ± 0.34 Å².

“FGTINIVHPKLGSYTK [_FGTINIVHPK(Dimethyl (K))LGSYTK_]” yielded a collision cross section under setting [11] of 520.37 ± 1.2 Å². For “FGTINIVHPKLGSYTK [_FGTINIVHPK(Formyl)LGSYTK_]”, the collision cross section is 468.22 ± 1.4 Å² under setting [12] and 546.15 ± 1.5 Å² under setting [13]. Consider “SITHSTVGSKGEK [_SITHSTVGSK(Gluratylation)GEK_]”, for which the collision cross section was determined as 400.44 ± 2.1 Å² under setting [8] and 444.81 ± 2 Å² under setting [14]. Substance “GVPRGVHLGSQGLQR [_GVPR(Citrullination (R))GVHLGSQGLQR_]” had a collision cross section under setting [6] of 439.96 Å² and a collision cross section under setting [7] of 482.18 ± 0.41 Å².

As to GAEKTEVAEPR [_GAEK(Propionyl)TEVAEPR_], the collision cross section under setting [15] is reported as 373.13 ± 6.5 Å².

As to “GGNFGGRGGYGGGGGGSR [_GGNFGGR(Citrullination (R))GGYGGGGGGSR_]”, the collision cross section under setting [6] is on record as 392.17 ± 1 Å² and the collision cross section under setting [7] is recorded as 481.82 Å². “TQDQISNIKYHEEFEK [_TQDQISNIK(Dimethyl (K))YHEEFEK_]” displayed a collision cross section under setting [11] of 542.8 ± 0.41 Å². Regarding DHLSDKESK [_DHLSDK(Trimethyl (K))ESK_], the collision cross section by setting is: under setting [16], 350.64 ± 1.1 Å²; under setting [17], 401.61 ± 0.025 Å².

Under setting [8], “LEQVEKELLR [_LEQVEK(Gluratylation)ELLR_]” registered a collision cross section of 392.7 ± 0.12 Å². On to “DTGEKLTVAENEAETK [_DTGEK(Acetyl (K))LTVAENEAETK_]”, for which the collision cross section was 441.95 ± 2.1 Å² under setting [4] and 512.62 Å² under setting [5]. For “SITHSTVGSKGEK [_SITHSTVGSK(Dimethyl (K))GEK_]”, the collision cross section was found to be 401.87 ± 2.2 Å² (charge state: 2, modification: Dimethyl (K)) and 464.51 ± 2.1 Å² under setting [11].

The substance AQLSQYFDAVK [_AQLSQY(Nitro (Y))FDAVK_] returned a collision cross section under setting [9] of 386.8 ± 0.8 Å². For “GGNFGGRGGYGGGGGGSR [_GGNFGGR(Methyl (R))GGYGGGGGGSR_]”, the collision cross section under setting [18] is recorded as 462.43 ± 2.7 Å². Substance LLFSNTAAQKLR [_LLFSNTAAQK(Succinyl)LR_] displayed a collision cross section under setting [1] of 404.93 ± 0.55 Å² and a collision cross section under setting [2] of 482.98 ± 3.3 Å².

Consider “ANEKTESSSAQQVAVSR [_ANEK(Dimethyl (K))TESSSAQQVAVSR_]”, for which, under setting [11], the collision cross section worked out at 490.79 ± 1.6 Å². Substance LQLEIDQKK [_LQLEIDQK(Formyl)K_] had a collision cross section under setting [12] of 362.42 ± 1 Å².

“DYSAPVNFISAGLKK [_DYSAPVNFISAGLK(Succinyl)K_]”: the collision cross section is, setting by setting: under setting [1], 438.82 ± 0.97 Å²; under setting [2], 533.85 ± 1.6 Å².

Substance “TVTNAVVTVPAYFNDSQR [_TVTNAVVTVPAY(Nitro (Y))FNDSQR_]” showed a collision cross section under setting [9] of 470.26 ± 1.5 Å² and a collision cross section (charge state: 3, modification: Nitro (Y)) of 559.7 ± 0.32 Å². For the substance “LSTPPPLAEEEGLASR [_LS(HexNAc (ST))TPPPLAEEEGLASR_]”, the collision cross section is, setting by setting: under setting [3], 448.88 Å²; (charge state: 3, modification: HexNAc (ST)) 503.24 Å².

With VTLEVGKVIQQGR [_VTLEVGK(Formyl)VIQQGR_], the collision cross section under setting [12] was found to be 402.06 ± 2.7 Å² and the collision cross section under setting [13] was found to be 475.94 ± 2.1 Å². On to “VGIDTPDIDIHGPEGKLK [_VGIDTPDIDIHGPEGK(hydroxyisobutyryl)LK_]”, for which the collision cross section by setting is: under setting [19], 500.35 ± 0.99 Å²; under setting [20], 542.95 ± 2 Å².

Under setting [10], INNFSADIKDSK [_INNFSADIK(Malonyl)DSK_] yielded a collision cross section of 398.58 ± 0.027 Å². Same read-out and setting: as for “DTGEKLTVAENEAETK [_DTGEK(Malonyl)LTVAENEAETK_]”, the figure is 444.04 ± 1.8 Å². Turning to LLEEEDSKLK [_LLEEEDSK(Acetyl (K))LK_], the collision cross section under setting [4] was found to be 378.84 ± 0.45 Å². On to “ASAISIKLGSSK [_ASAISIK(Acetyl (K))LGSSK_]”, for which the collision cross section under setting [4] stood at 368.59 ± 0.51 Å². As for “SITHSTVGSKGEK [_SITHSTVGSK(Methyl (K))GEK_]”, the collision cross section under setting [21] is 402.47 ± 1.2 Å² and the collision cross section under setting [22] was 466.28 ± 2.9 Å².

As to “ANLEKAQAELVGTADEATR [_ANLEK(hydroxyisobutyryl)AQAELVGTADEATR_]”, the collision cross section reads like this: under setting [19], 473.77 ± 6.8 Å²; under setting [20], 579.16 ± 1.2 Å². For the substance SDDESSQKDIK [_SDDESSQK(Succinyl)DIK_], the collision cross section under setting [1] was found to be 378.1 ± 1 Å².

For the substance “YIEIYVQKVNPSR [_YIEIYVQK(Trimethyl (K))VNPSR_]”, the collision cross section is 446.57 Å² under setting [16] and 499.16 ± 1.6 Å² under setting [17].

In turn, LGPNDQYK [_LGPNDQY(Nitro (Y))K_] displayed a collision cross section under setting [9] of 332.94 ± 1.8 Å². In turn, “GGFQNRGGGSGGGGNYR [_GGFQNR(Methyl (R))GGGSGGGGNYR_]” displayed a collision cross section under setting [18] of 475.78 ± 6.5 Å². Take VGEFSGANKEK [_VGEFSGANK(Butyryl)EK_]: the collision cross section (charge state: 2, modification: Butyryl) came out at 369.78 ± 1.3 Å². Under setting [17], “GEVGAGAGPGAQAGPSAKR [_GEVGAGAGPGAQAGPSAK(Trimethyl (K))R_]” registered a collision cross section of 489.76 ± 5.2 Å². For the substance “IQQELQTAKK [_IQQELQTAK(Gluratylation)K_]”, the collision cross section was determined as 388.2 ± 0.52 Å² under setting [8] and 444.75 Å² under setting [14].

On to GETASKLQSEISR [_GETASK(Formyl)LQSEISR_], for which the collision cross section under setting [12] amounted to 382.6 ± 1.7 Å². As to DLATVYVDVLK [_DLATVY(Nitro (Y))VDVLK_], the collision cross section under setting [9] stood at 387.27 ± 0.74 Å².

In the case of GGSAGGRGFFR [_GGSAGGR(Methyl (R))GFFR_], the collision cross section runs as follows: (charge state: 2, modification: Methyl (R)) 365.18 ± 0.78 Å²; under setting [18], 426.87 ± 4.1 Å². As for “TQAYQDQKPGTSGLR [_TQAYQDQK(Gluratylation)PGTSGLR_]”, the collision cross section under setting [8] is on record as 436.36 ± 1.1 Å² and the collision cross section under setting [14] stood at 483.65 ± 1 Å².

Under setting [9], DYNVTANSK [_DY(Nitro (Y))NVTANSK_] returned a collision cross section of 334.81 ± 0.16 Å². Take LDEKENLSAK [_LDEK(Formyl)ENLSAK_]: the collision cross section under setting [12] is on record as 361.57 ± 0.88 Å². For the substance VRFHNPR [_VR(Citrullination (R))FHNPR_], the collision cross section was determined as 325.95 ± 14 Å² under setting [6] and 406.17 Å² under setting [7]. In the case of “IISSIEQKEENK [_IISSIEQK(Gluratylation)EENK_]”, the collision cross section came to 411.03 ± 0.6 Å² under setting [8] and 467.18 ± 1.7 Å² under setting [14]. With SDDESSQKDIK [_SDDESSQK(Propionyl)DIK_], the collision cross section under setting [15] worked out at 377.44 ± 0.33 Å².

Consider “YSSNLGNFNYEQRGAFR [_YSSNLGNFNYEQR(Citrullination (R))GAFR_]”, for which the collision cross section under setting [7] amounted to 530.01 Å². Consider LTEKELAEAASK [_LTEK(Crotonyl)ELAEAASK_], for which the collision cross section under setting [23] is 394.89 ± 2.4 Å².

Consider “VGLQVVAVKAPGFGDNR [_VGLQVVAVK(Crotonyl)APGFGDNR_]”, for which the collision cross section reads like this: under setting [23], 449.86 ± 0.94 Å²; (charge state: 3, modification: Crotonyl) 499.08 ± 1.6 Å². With “GEAGPTGPQGEPGVR [_GEAGPTGPQGEP(Hydroxyproline)GVR_]”, the collision cross section (charge state: 2, modification: Hydroxyproline) was found to be 382.58 ± 0.36 Å². Substance LLEEEDSKLK [_LLEEEDSK(Crotonyl)LK_] showed a collision cross section under setting [23] of 386.83 ± 0.27 Å². Regarding “DASTLQSQKAEGTGDAK [_DASTLQSQK(Methyl (K))AEGTGDAK_]”, the collision cross section runs as follows: under setting [21], 440.39 ± 1.8 Å²; under setting [22], 487.49 ± 2.4 Å². On to “TLQKQSVVYGGK [_TLQK(GlyGly (K))QSVVYGGK_]”, for which the collision cross section is listed as 403.57 ± 1.5 Å² (charge state: 2, modification: GlyGly (K)) and 459.43 ± 2 Å² (charge state: 3, modification: GlyGly (K)).

The record behind these values is the supplement of paper PMC10598134.
